B1: CPEB3 Ribozyme (parent)
chain: GGGGGCCACAGCAGAAGCGUUCACGUCGCGGCCCCUGUCAGAUUCUGGUGAAUCUGCGAAUUCUGCUGU

Variants of: B1
Experiment: self-cleavage, relative activity (ratio to wild type); higher = more cleavage; co-transcriptional

Variant | self-cleavage
A13U C54G | 0.419
C12G U62A | 0.349
C12G U62C | 0.458
A13C U38C | 0.668
A13C U38G | 0.0833
A13C U38A | 0.679
A13C C24G | 0.0828
A13G U20C | 0.199
A13G U20A | 0.0779
C12U U53C | 0.785
C12U C24G | 0.316
C12U C24A | 0.713
C12U C24U | 0.805
C12U C66U | 0.798
C12U C66G | 0.556
A13G G30U | 0.241
C12A G31U | 0.258
C12A G31C | 0.219
C12U C29A | 0.451
A13G U46C | 0.927
C12G G37C | 0.205
C12G G37U | 0.223
C12G G30A | 0.43
C12G G30U | 0.26

Variant | self-cleavage
A13G C33A | 0.942
A13G C33U | 0.946
C12G A60U | 0.367
C12G A59U | 0.4
A13C U53C | 0.352
A13C U53G | 0.63
A13G U55A | 0.722
A13C G37C | 0.156
A13C G50A | 0.913
C12G U20C | 0.119
G14A C29G | 0.167
G14A C29A | 0.23
A13G G17C | 0.052
A13U U43G | 0.221
C12U C32U | 0.999
A13G C18U | 0.382
A13C G25U | 0.104
A13C G25A | 0.129
A13G U43A | 0.617
A13G U61A | 0.834
A13U G25U | 0.108
A13U G25C | 0.0789
C12A U21G | 0.0774
A13G G68U | 0.95

Variant | self-cleavage
A13G G68C | 0.924
A13U C39U | 0.422
C12G G41C | 0.416
C12G G41U | 0.377
A13C U36A | 0.175
A13C U36G | 0.201
A13G G65A | 0.653
A13G G65C | 0.345
A13U C35U | 0.826
A13U C35A | 0.197
C12U U36C | 0.892
C12U C33G | 0.656
C12U C33A | 0.924
C12U G41A | 0.716
C12U G41C | 0.617
C12G C54G | 0.518
C12G U61C | 0.282
C12U G56C | 0.554
C12U G56U | 0.802
A13C A60U | 0.276
C12A G58A | 0.62
C12U C22A | 0.2
C12G U36C | 0.669
C12G U64G | 0.395

Variant | self-cleavage
C12G U64C | 0.566
A13C C35A | 0.281
A13U G56U | 0.348
A13C C45U | 0.876
C12G G56A | 0.741
C12G G56U | 0.544
A13C C39G | 0.538
A13C C39A | 0.372
C12G C35A | 0.326
C12G C35G | 0.369
A13G U49C | 1.01
A13G U49G | 0.989
C12A U46A | 0.804
A13U U49A | 0.91
A13U U49G | 0.901
C12A U55C | 0.366
A13U G31A | 0.623
C12G C63U | 0.53
A13G C24G | 0.368
A13U C24G | 0.127
A13G G41U | 0.583
A13G G41C | 0.547
A13U C63U | 0.648
A13C A15U | 0.145

Variant | self-cleavage
A13C A15C | 0.264
C12U U69A | 1.02
C12U U69G | 1.05
C12A U62C | 0.338
A13C A42C | 0.602
G14A A40U | 0.21
A13G U44C | 0.824
A13G U44A | 0.877
A13G C35A | 0.167
A13G C35U | 0.952
C12A U38A | 0.493
C12A U38C | 0.516
A13U A40U | 0.265
A13U A40C | 0.163
A13C U55A | 0.315
A13C U55G | 0.322
A13G C27A | 0.425
A13G C27G | 0.137
C12U U62C | 0.511
C12U | 0.996
C12G | 0.92
A13G C22A | 0.106
A13G C22U | 0.207
C12G U44A | 0.727

Variant | self-cleavage
C12A U49C | 0.73
A13C C29G | 0.141
C12G U38C | 0.745
A13U A42C | 0.586
C12G G58C | 0.834
C12U G48C | 0.972
C12U G48A | 0.963
G14A C27G | 0.116
A13C G41A | 0.27
C12A G41A | 0.213
A13G C39A | 0.602
C12U C27G | 0.174
C12U A52U | 0.952
A13C C34U | 0.929
A13C C34A | 0.511
A13U G14C | 0.351
A13U C22G | 0.148
A13U C22A | 0.161
A13U C22U | 0.171
C12U C39A | 0.756
A13C C22G | 0.149
A13C C22A | 0.0721
A13C U62A | 0.348
A13C U62C | 0.475

Variant | self-cleavage
C12G C22A | 0.164
C12G C22G | 0.208
A13U G47C | 0.877
A13U G58U | 0.911
A13U G58C | 0.788
C12G G28U | 0.11
A13C A51C | 0.827
A13C A51U | 0.744
A13U G48A | 0.911
A13U G28U | 0.165
A13U C27G | 0.155
A13U C27U | 0.134
A13U U36C | 0.647
A13G G28A | 0.139
C12A G65C | 0.841
A13C U20G | 0.089
A13C C32U | 0.89
A13C C32G | 0.192
A13U G41U | 0.333
A13G C29U | 0.133
A13U G17C | 0.116
C12G A13G | 0.48
A13C U61A | 0.459
A13C U61G | 0.406

Variant | self-cleavage
A13U U20A | 0.0602
A13G C66A | 0.295
A13G C66U | 0.756
A13G G48C | 0.971
C12G C29G | 0.152
A13U C57A | 0.194
C12G C34G | 0.69
C12G G14U | 0.118
C12G G14A | 0.127
C12G G14C | 0.0732
C12G C24G | 0.199
C12G C24U | 0.435
C12G C24A | 0.374
A13C G31C | 0.131
C12U A40U | 0.643
A13U A23C | 0.793
C12A G37A | 0.187
C12A G37C | 0.149
C12A G37U | 0.18
C12U A51C | 0.977
A13C U69A | 0.915
A13C U69C | 1.06
A13U U55C | 0.403
C12G C27G | 0.1

Variant | self-cleavage
G14A A59C | 0.343
A13U C45U | 0.904
C12G G19U | 0.0842
C12G G19A | 0.137
C12G G19C | 0.0934
A13C A23C | 0.83
A13G A52U | 0.989
A13C A52G | 0.823
A13C G17U | 0.125
C12G C33U | 0.405
A13G C54U | 0.937
C12G G68A | 0.972
C12G G68C | 0.832
A13G G47C | 0.997
A13G A51G | 0.843
A13G A51U | 0.905
C12A U69G | 0.925
A13G C57A | 0.448
C12A U36G | 0.154
C12A U36A | 0.194
A13C C57U | 0.248
A13C C57G | 0.235
A13C G47A | 0.922
A13U A59U | 0.464

Variant | self-cleavage
G14A A23U | 0.875
G14A C24G | 0.148
G14A A51G | 0.81
G14A | 0.832
A13C G19A | 0.109
A13C G19C | 0.107
A13U C18A | 0.132
A13C G68U | 0.892
A13U U53C | 0.357
C12G C39A | 0.484
A13C U67A | 0.783
A13C U67C | 0.706
C12G G17U | 0.165
C12U C57U | 0.317
C12G G48C | 0.949
A13G U69A | 1
C12U U49A | 1.02
A13U U44A | 0.659
A13G A16C | 0.175
A13G A16U | 0.714
A13G A16G | 0.855
C12U A15C | 0.389
A13U C33U | 0.894
A13U U67G | 0.827

Variant | self-cleavage
C12G U49A | 0.934
C12G U49C | 0.827
C12G A23U | 0.55
C12G A23C | 0.628
C12G A23G | 0.721
C12U G58C | 1.01
A13G C45G | 0.847
C12U C45G | 0.98
C12U C45U | 1.01
C12U U44A | 0.954
C12U U44G | 0.866
C12G A40C | 0.318
C12U U67C | 0.978
C12A U64A | 0.582
C12A U64C | 0.58
C12U U21C | 0.9
G14A A52G | 0.805
A13U C66G | 0.413
C12A U26A | 0.374
C12A U26G | 0.447
G14A A42U | 0.329
G14A A42G | 0.372
A13U U62C | 0.278
A13U U62G | 0.299

Variant | self-cleavage
C12U G30U | 0.368
C12U G30C | 0.67
A13C G65U | 0.41
C12U U55A | 0.756
C12U U43A | 0.868
A13C C27G | 0.048
C12G U21C | 0.308
A13C U43C | 0.685
C12U A60U | 0.374
C12U U20G | 0.17
A13G G31C | 0.241
G14A A15U | 0.424
G14A A15G | 0.823
A13G A42C | 0.647
A13G A42G | 0.855
A13G U67G | 0.897
C12G U67C | 0.917
A13G U36G | 0.227
C12G A51U | 0.854
C12U U61G | 0.644
C12U U61C | 0.579
C12U G50U | 0.953
C12U U46G | 1
A13G U26A | 0.767

Variant | self-cleavage
C12U A23C | 0.93
A13C G30A | 0.497
C12A G48U | 0.8
A13G A40C | 0.306
A13C C33G | 0.231
A13C C33U | 0.774
A13U G37A | 0.184
C12U G14C | 0.146
C12U G14U | 0.345
C12G A16C | 0.177
C12G A16U | 0.486
C12U C54U | 0.968
C12G U43G | 0.361
A13G A23U | 0.997
A13G A23G | 0.804
A13C U64C | 0.614
C12U G19U | 0.339
C12U U38A | 0.88
G14A C22A | 0.178
G14A C22U | 0.17
C12A U53C | 0.232
A13U U26A | 0.626
A13U U26C | 0.422
A13U U26G | 0.287

Variant | self-cleavage
A13C U46A | 0.901
A13C U46G | 0.885
C12U C63A | 0.56
C12U C63U | 0.898
C12G G25C | 0.166
C12G U69C | 1.06
A13G | 0.97
A13U | 0.888
A13C | 0.913
C12U C35U | 0.947
C12U C35G | 0.45
C12U C35A | 0.275
A13C A40G | 0.738
A13G G19C | 0.13
A13G A15U | 0.547
A13C G48C | 0.917
A13C G48A | 0.957
A13C G48U | 0.934
A13U A60C | 0.318
A13U C34U | 0.917
C12U G68C | 1.01
A13U C32U | 0.862

From the RNAGym collection of RNA variant scans (doi:10.7554/elife.80360)
